Reference: patent CN114195890A (UNIV SHANGHAI TRAFFIC, dated 2022)

Molecular target: T1, 抗原K27-3Ub (化学合成的K27连接泛素链蛋白) (UniProt P0CG48 1-76, ubiquitin units joined through K27 linkages (K27 of one ubiquitin to the C-terminus of the next); biotinylated (biotin-K27-3Ub) in the ELISA)
T1 construct: Chemically synthesised K27-linked tri-ubiquitin provided by the Liu Lei group, Tsinghua University; also called biotin-K27-3Ub; K27泛素链
Assay: SPR, Biacore 8K, antibody captured on Protein A chip, K27-3Ub as analyte, 1:1 fit

B1: 全长抗体蛋白IgG.zl1901 (antibody, V domains shown)
VH: EVQLVESGAEVKKPGASVKVSCKASGYTFTSYYMHWVRQAPGQGLEWMGIINPSGGSTSYAQKFQGRVTMTRDTSTSTVYMELSSLRSEDTAVYYCARGLRAELLHYYYGMDVWGQGTTVTVSS
VL: not shown
notes: also called 全长抗体IgG.zl1901
  Kd: 3.66 nM
  koff: 0.00234 s⁻¹
